Reference: patent publication US8273357B2, “Antigen-carbohydrate conjugates” (Massachusetts Institute of Technology, priority 2004, dated 2012)
Entries after “also recorded” stand apart in the source; their conditions may differ.

Key:
mannose receptor = target: T1, mannose receptor (Homo sapiens, UniProt P22897); details: cited from earlier work
T1 sequence (P22897 19-1456): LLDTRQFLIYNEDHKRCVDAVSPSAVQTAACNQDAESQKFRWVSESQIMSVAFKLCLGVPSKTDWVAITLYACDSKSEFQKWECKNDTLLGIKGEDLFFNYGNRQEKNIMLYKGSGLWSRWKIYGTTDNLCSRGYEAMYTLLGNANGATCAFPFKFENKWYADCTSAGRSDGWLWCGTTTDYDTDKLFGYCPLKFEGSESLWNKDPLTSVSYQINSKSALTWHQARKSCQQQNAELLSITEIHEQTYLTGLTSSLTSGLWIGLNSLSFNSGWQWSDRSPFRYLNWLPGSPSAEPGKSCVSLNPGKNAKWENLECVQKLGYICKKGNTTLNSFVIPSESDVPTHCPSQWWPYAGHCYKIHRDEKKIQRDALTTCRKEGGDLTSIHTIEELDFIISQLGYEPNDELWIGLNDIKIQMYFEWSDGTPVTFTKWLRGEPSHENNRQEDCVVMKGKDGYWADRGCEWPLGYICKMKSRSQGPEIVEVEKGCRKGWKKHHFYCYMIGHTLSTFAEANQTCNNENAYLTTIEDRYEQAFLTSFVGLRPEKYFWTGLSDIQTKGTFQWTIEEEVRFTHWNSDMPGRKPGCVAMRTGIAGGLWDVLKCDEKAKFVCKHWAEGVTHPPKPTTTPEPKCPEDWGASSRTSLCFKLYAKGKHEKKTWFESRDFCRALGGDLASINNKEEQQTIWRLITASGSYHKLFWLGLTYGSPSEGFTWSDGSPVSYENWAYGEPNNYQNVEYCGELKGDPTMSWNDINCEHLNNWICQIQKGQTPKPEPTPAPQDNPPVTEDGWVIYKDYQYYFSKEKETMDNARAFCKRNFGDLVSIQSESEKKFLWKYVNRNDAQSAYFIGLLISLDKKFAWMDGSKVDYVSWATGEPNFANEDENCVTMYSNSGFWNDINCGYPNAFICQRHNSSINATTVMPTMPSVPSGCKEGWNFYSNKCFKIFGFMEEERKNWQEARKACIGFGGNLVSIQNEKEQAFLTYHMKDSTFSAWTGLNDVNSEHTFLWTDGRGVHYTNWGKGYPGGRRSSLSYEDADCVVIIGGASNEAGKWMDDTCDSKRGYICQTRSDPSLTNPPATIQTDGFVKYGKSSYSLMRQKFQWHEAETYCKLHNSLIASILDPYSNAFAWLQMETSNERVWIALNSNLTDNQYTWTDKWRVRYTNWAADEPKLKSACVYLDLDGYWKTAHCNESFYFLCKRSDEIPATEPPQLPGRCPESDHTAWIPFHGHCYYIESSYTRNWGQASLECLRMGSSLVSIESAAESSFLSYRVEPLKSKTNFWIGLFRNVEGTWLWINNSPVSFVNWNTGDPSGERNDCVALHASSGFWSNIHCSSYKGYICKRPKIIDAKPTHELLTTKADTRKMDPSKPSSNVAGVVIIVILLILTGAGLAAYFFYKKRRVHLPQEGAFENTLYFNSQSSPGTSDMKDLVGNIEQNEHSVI

OTII T cells = experiment: Adoptive transfer of OTII cells, subcutaneous immunization, FACS count of donor T cells; format: in vivo, mouse; details: 200 ng subcutaneous
From the text: FIGS. 6A, 6B, and 6C are a schematic diagram (FIG. 6A) and a series of flow cytometry dot plots (FIGS. 6B and 6C). FIG. 6A is a schematic diagram that illustrates the adoptive transfer technique: CD4^+CD45.2^+ ovalbumin-specific T cells are adoptively transferred to congenic CD45.1^+ recipients. After immunization the draining lymph nodes and other lymphoid organs (e.g., the spleen) are isolated. Cells from these tissues are stained with an antibody against the CD45.2 isoform and the OTII T cell receptor to identify the original donor cells. […] B6.Ly5.2/Cr mice were injected intravenously with 2×10^7 OTII splenocytes. 24 hours later the mice were injected subcutaneously with PBS, OVA (200 ng), or (OVA)-3-1 (200 ng). […] Each panel represents two or more experiments.
In order to determine the immunological implications of (OVA)-3-1 internalization and presentation by dendritic cells in vivo, the technique of adoptive transfer (FIG. 6A) was employed to track the T cell responses to DC presented antigen^15. […]
CD45.2^+ VA-specific T cells were transferred to B6.Ly5.2/Cr (CD45.1^+) recipients and, after a twenty-four hour rest period, the mice were immunized subcutaneously with PBS, OVA or (OVA)-3-1. After seventy-two hours, cells were isolated from the draining inguinal lymph nodes and counted by FACS to determine the extent of OTII cell division induced by the immunization regimen (FIG. 6B). […]

**Q.** With “mBSA: BSA modified with approximately 25 mannose residues per protein molecule [reference compound]” as the molecule, how does the “ligand for the mannose receptor” value (mannose receptor) read?
**A.** Its value is “nanomolar ligand”.

B1: (OVA)-3-1: ovalbumin modified via SMCC with nonasaccharide 3-1, average of three saccharides per OVA (conjugate)
chain: GSIGAASMEFCFDVFKELKVHHANENIFYCPIAIMSALAMVYLGAKDSTRTQINKVVRFDKLPGFGDSIEAQCGTSVNVHSSLRDILNQITKPNDVYSFSLASRLYAEERYPILPEYLQCVKELYRGGLEPINFQTAADQARELINSWVESQTNGIIRNVLQPSSVDSQTAMVLVNAIVFKGLWEKAFKDEDTQAMPFRVTEQESKPVQMMYQIGLFRVASMASEKMKILELPFASGTMSMLVLLPDEVSGLEQLESIINFEKLTEWTSSNVMEERKIKVYLPRMKMEEKYNLTSVLMAMGITDVFSSSANLSGISSAESLKISQAVHAAHAEINEAGREVVGSAEAGVDAASVSEEFRADHPFLFCIKHIATNAVLFFGRCVSP
**Q.** What does the source list for B1?
**A.** total OTII cell number in the draining lymph node compared to soluble OVA (OTII T cells; 72 h): doubling; also recorded: promotes expansion; total OTII cell number in the spleen (OTII T cells; 3 days): appreciable increase
